Data from patent publication US20260085122A1 (BEONE MEDICINES I, published 2026).

B1: VHH1_C001 (VHH)
VHH: EVQLVESGGGLVQPGGSLRLSCAASPRTFQTYFMGWFRQAPGKELEWVSVINWSGGTSYYKDSVKGRFTISRDNSKNTLYLQMNSLRAEDTAVYYCAAKGSGTYDREGEYDYWGQGTLVTVSS
notes: Monovalent VHH fragment with C-terminal 6xHis-tag, no Fc
B2: VHH1_C002 (VHH)
VHH: EVQLLESGGGLVQPGGSLRLSCAASGFTFSDYHMSWVRQAPGKGLEWVSGILNTGLSPTYAATVTGRFTISRDNSKNTLYLQMNSLRAEDTAVYYCAQGYYRATPSQANRGQGTLVTVSS
notes: as for B1

Key:
[1] = target: 2Ig-B7H3 (Cat: B73-H5253) (UniProt Q5ZPR3 29-245); test: SPR (Biacore 8K, 25 C), B7H3 captured by anti-human IgG, VHH as analyte, 1:1 model
Procedure: (§1) 4Ig-B7H3 (Cat: 11188-H02H) and 2Ig-B7H3 (Cat: B73-H5253) proteins were coupled onto a CM5 Biocore sensor derivatized via amine coupling with anti-human IgG antibody (Cat: 29234600). The VHH fragments were then flowed through at a rate at 40 μl/min. Association of VHH to B7H3 proteins was monitored for 120 seconds and disassociation of VHH in buffer 1×HBS (0.01 M HEPES, pH 7.4, 0.15 M NaCl, 3 mM EDTA, 0.05% v/v surfactant P20) was monitored for more than 120 seconds.
(§2) Ka and Kd were determined by fitting the real-time sensorgram to a 1:1 binding model using Biacore Insight Evaluation software. Binding disassociation equilibrium constants (KD) were calculated from kinetics rates as follows: […]

[2] = target: T1, 4Ig-B7H3 (Cat: 11188-H02H) (human); test: as above
T1 construct: also called B7H3-4IG; 4Ig-B7H3 proteins
Procedure: as §1, §2

T1 sequence (Q5ZPR3 29-461): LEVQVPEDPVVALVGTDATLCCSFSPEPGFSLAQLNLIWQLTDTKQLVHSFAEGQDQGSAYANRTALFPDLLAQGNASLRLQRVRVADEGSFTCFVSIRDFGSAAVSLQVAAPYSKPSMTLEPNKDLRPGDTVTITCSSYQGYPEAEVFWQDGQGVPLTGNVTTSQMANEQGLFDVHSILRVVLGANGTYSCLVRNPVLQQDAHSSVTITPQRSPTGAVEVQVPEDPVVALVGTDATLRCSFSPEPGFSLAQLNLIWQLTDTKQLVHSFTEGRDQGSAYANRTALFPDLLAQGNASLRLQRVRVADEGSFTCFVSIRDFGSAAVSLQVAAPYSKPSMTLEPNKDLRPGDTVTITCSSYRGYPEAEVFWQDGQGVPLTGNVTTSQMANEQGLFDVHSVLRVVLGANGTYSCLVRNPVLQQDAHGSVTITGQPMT
Sequence of 2Ig-B7H3 (Cat: B73-H5253) (Q5ZPR3 other isoform, or with tags, fused parts or gaps): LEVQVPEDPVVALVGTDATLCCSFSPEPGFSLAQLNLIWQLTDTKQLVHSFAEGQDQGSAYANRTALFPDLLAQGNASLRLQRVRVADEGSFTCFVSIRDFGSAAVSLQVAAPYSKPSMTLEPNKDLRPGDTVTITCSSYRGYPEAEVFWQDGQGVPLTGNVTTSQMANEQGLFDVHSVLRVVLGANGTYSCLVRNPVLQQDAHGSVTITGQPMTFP

Binder | Kd [1] | koff [1] | kon [1] | Kd [2] | koff [2] | kon [2]
B1 | 94.1 nM | 0.27 s⁻¹ | 2.87e+06 M⁻¹ s⁻¹ | 7.41 nM | 0.00677 s⁻¹ | 914000 M⁻¹ s⁻¹
B2 | 43.3 nM | 0.129 s⁻¹ | 2.99e+06 M⁻¹ s⁻¹ | 3.89 nM | 0.0096 s⁻¹ | 2.47e+06 M⁻¹ s⁻¹
